Measurements: US20180289803A1 (Eli Lilly, published 2018)

Biological target: human PD-L1 (endogenous, in the mixed leukocyte reaction of human CD4 T-cells and monocyte-derived dendritic … (human, UniProt Q9NZQ7 19-290))
Assay: cell-based or functional assay

- IFN-γ levels in the mixed leukocyte reaction (MLR) at 4 nM antibody: ~3 fold
- IFN-γ levels in the mixed leukocyte reaction (MLR) at 8 nM antibody: ~5 fold
B1: Antibody C (bispecific antibody, human IgG1, kappa, lambda, L234A L235A)
heavy 1: not shown
light 1: not shown
heavy 2: not shown
light 2: DIVMTQSPSSLSASVGDGVTITCQASQDIYNYLNWYQQKPGKAPKLLIYYASSIVSGVPSRFSGSGSGTDFTLTISSLQPEDFATYYCQQASSFPPTFGQGTKLEIKRTVAAPSVFIFPPSDEQLKSGTARVGCLLNNFYPREAKVQWKVDNALQSGNSQESVTEQDSKDSTYSLRSALTLSKADYEKHKVYACEVTHQGLSSPVTKSFNRGEC
